Drawing on the supplement of paper PMC10567573, this text covers protein stability index for 94 variants.

To fix the notation:
B1: TRAF3IP2 (parent)
chain: APWNYHYHCPGSPDHQVPYGHDYP
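Note: lentivirally expressed fusions sorted by FACS into six bins by GFP to DsRed ratio, PSI derived from sequencing read proportions per bin multiplied by bin number.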

This data set covers variants of B1. As to the kind of experiment: protein stability index of a GFP-peptide fusion (GPS, HEK-293T) (PSI 1-6); higher = more stable. Particulars: c terminus: a fixed tail appended.
For the variant APWQYHYHCPGSPDHQVPYGHDYP, the protein stability index came out at 3.04.

As to APWCYHYHCPGSPDHQVPYGHDYP, the protein stability index stood at 2.17.

As for APWAYHYHCPGSPDHQVPYGHDYP, the protein stability index came to 1.7.

As to APWPYHYHCPGSPDHQVPYGHDYP, the protein stability index is 2.59.

For APWYYHYHCPGSPDHQVPYGHDYP, the protein stability index is 2.54.

For APWFYHYHCPGSPDHQVPYGHDYP, the protein stability index was found to be 2.63.

With APWSYHYHCPGSPDHQVPYGHDYP, the protein stability index came out at 3.36.

With APWIYHYHCPGSPDHQVPYGHDYP, the protein stability index was 2.43.

Take APWNYHPHCPGSPDHQVPYGHDYP: the protein stability index amounted to 3.29.

Take APWNYHAHCPGSPDHQVPYGHDYP: the protein stability index is 3.15.

With APWNYHCHCPGSPDHQVPYGHDYP, the protein stability index is 2.49.

Regarding APWNYHVHCPGSPDHQVPYGHDYP, the protein stability index was 2.67.

For the variant APWNYHKHCPGSPDHQVPYGHDYP, the protein stability index was found to be 2.91.

Consider APWNYHSHCPGSPDHQVPYGHDYP, for which the protein stability index amounted to 2.82.

Regarding APWNYHYHCPGSPDHQGPYGHDYP, the protein stability index turned out to be 2.68.

For the variant APWNYHYHCPGSPDHQLPYGHDYP, the protein stability index was determined as 2.81.

Take APWNYHYHCPGSPDHQIPYGHDYP: the protein stability index came out at 2.15.

APWNYHYHCPGSPDHQFPYGHDYP: the protein stability index was determined as 1.73.

Regarding APWNYHYHCPGSPDHQMPYGHDYP, the protein stability index stood at 1.88.

As to APWNYHYHCPGSPDHQHPYGHDYP, the protein stability index is 2.71.

With APWNYHYHCPGSPDHQKPYGHDYP, the protein stability index stood at 2.53.

Turning to APWNYHYHCPGSPDHQPPYGHDYP, the protein stability index worked out at 2.6.

Turning to APWNYHYHCPGSPDHQWPYGHDYP, the protein stability index was determined as 2.08.

As to APWNYHYHCPGSPDHQSPYGHDYP, the protein stability index was 2.31.

With APWNYHYHCPGSPDHQNPYGHDYP, the protein stability index is 2.23.

As for APWNYHYHCPGSPDHQEPYGHDYP, the protein stability index stood at 2.95.

Regarding APWNYHYHCPGSPDHQRPYGHDYP, the protein stability index came to 2.4.

In the case of AQWNYHYHCPGSPDHQVPYGHDYP, the protein stability index is 2.35.

As for ADWNYHYHCPGSPDHQVPYGHDYP, the protein stability index amounted to 3.38.

Take AHWNYHYHCPGSPDHQVPYGHDYP: the protein stability index worked out at 2.26.

Take ATWNYHYHCPGSPDHQVPYGHDYP: the protein stability index is 2.21.

In the case of AGWNYHYHCPGSPDHQVPYGHDYP, the protein stability index was 1.59.

Turning to ARWNYHYHCPGSPDHQVPYGHDYP, the protein stability index is 2.28.

In the case of AAWNYHYHCPGSPDHQVPYGHDYP, the protein stability index was determined as 2.66.

In the case of ANWNYHYHCPGSPDHQVPYGHDYP, the protein stability index was determined as 3.37.

APWNYHYHCPGSPDHQVDYGHDYP: the protein stability index was 2.44.

With APWNYHYHCPGSPDHQVQYGHDYP, the protein stability index was 2.54.

In the case of APWNYHYHCPGSPDHQVHYGHDYP, the protein stability index is 2.17.

APWNYHYHCPGSPDHQVMYGHDYP: the protein stability index stood at 2.56.

As for APWNYHYHCPGSPDHQVYYGHDYP, the protein stability index was determined as 2.16.

With APWNYHYHCPGSPDHQVFYGHDYP, the protein stability index amounted to 2.23.

For APWNYHYHCPGSPDHQVGYGHDYP, the protein stability index was found to be 1.92.

APWNYHYHCPGSPDHQVEYGHDYP: the protein stability index is 2.54.

Take APWNYHYHCPGSPDHQVKYGHDYP: the protein stability index stood at 3.59.

As for APWNYHYHCPGSPDHQVNYGHDYP, the protein stability index is 2.5.

In the case of APWNYHYHHPGSPDHQVPYGHDYP, the protein stability index was 2.28.

For APWNYHYHKPGSPDHQVPYGHDYP, the protein stability index is 2.66.

For APWNYHYHWPGSPDHQVPYGHDYP, the protein stability index was determined as 1.78.

APWNYHYHDPGSPDHQVPYGHDYP: the protein stability index was found to be 2.59.

For the variant APWNYHYHAPGSPDHQVPYGHDYP, the protein stability index was 2.08.

APWNYHYHVPGSPDHQVPYGHDYP: the protein stability index turned out to be 2.7.

As for APWNYHYHRPGSPDHQVPYGHDYP, the protein stability index is 2.52.

With APWNYHYHYPGSPDHQVPYGHDYP, the protein stability index came to 2.16.

Consider APWNYHYHCPGSPDHDVPYGHDYP, for which the protein stability index was 2.49.

As for APWNYHYHCPGSPDHTVPYGHDYP, the protein stability index was found to be 2.31.

Turning to APWNYHYHCPGSPDHHVPYGHDYP, the protein stability index was found to be 2.97.

On to APWNYHYHCPGSPDHKVPYGHDYP, for which the protein stability index was 2.15.

APWNYHYHCPGSPDHEVPYGHDYP: the protein stability index came to 2.6.

For APWNYHYHCFGSPDHQVPYGHDYP, the protein stability index came out at 2.07.

Consider APWNYHYHCAGSPDHQVPYGHDYP, for which the protein stability index was 1.69.

On to APWNYHYHCNGSPDHQVPYGHDYP, for which the protein stability index was determined as 2.08.

In the case of APWNYHYHCEGSPDHQVPYGHDYP, the protein stability index was found to be 2.27.

On to APWNYHYHCKGSPDHQVPYGHDYP, for which the protein stability index worked out at 2.4.

As to APWNYHYHCCGSPDHQVPYGHDYP, the protein stability index turned out to be 1.5.

For APWNYHYHCYGSPDHQVPYGHDYP, the protein stability index was 2.13.

Turning to APWNYHYHCPGSPDHQVPYGHDFP, the protein stability index came to 2.

For the variant APWNYHYHCPGSPDHQVPYGHDCP, the protein stability index came out at 1.91.

In the case of APWNYHYHCPGSPDHQVPYGHDAP, the protein stability index is 2.85.

Consider APWNYHYHCPGSPDHQVPYGHDHP, for which the protein stability index stood at 1.88.

Consider APWNYHYHCPGSPDHQVPYGHDDP, for which the protein stability index came to 3.83.

On to APWNYHYHCPGSPDHQVPYGHDNP, for which the protein stability index was found to be 2.08.

As for APWNYHYHCPGSPDHQVPYGHDIP, the protein stability index came to 2.3.

As for APWNYHYHCPGSPDHQVPYGHDVP, the protein stability index was 1.97.

APWNYHYHCPGSPDHQVPYGHDYQ: the protein stability index is 2.28.

APWNYHYHCPGSPDHQVPYGHDYN: the protein stability index stood at 2.93.

As to APWNYHYHCPGSPDHQVPYGHDYR, the protein stability index was determined as 2.73.

Consider APWNYHYHCPGSPDHQVPYGHDYW, for which the protein stability index came to 1.94.

For APWNYHYHCPGSPDHQVPYGHDYA, the protein stability index is 2.51.

Regarding APWNYHYHCPGSPDHQVPYGHDYC, the protein stability index is 2.02.

For the variant APWNYHYHCPGSPDHQVPYGHDYY, the protein stability index was 1.86.

As to APWNYHYHCPGSPDHQVPYGHDYE, the protein stability index is 4.07.

With APWNYHYHCPGSPDHQVPYGHDYH, the protein stability index was 3.02.

Consider APWNYHYHCPGSWDHQVPYGHDYP, for which the protein stability index was 1.67.

For the variant APWNYHYHCPGSMDHQVPYGHDYP, the protein stability index is 2.12.

Consider APWNYHYHCPGSRDHQVPYGHDYP, for which the protein stability index was found to be 2.33.

Take APWNYHYHCPGSEDHQVPYGHDYP: the protein stability index is 3.05.

For APWNYHYHCPGSSDHQVPYGHDYP, the protein stability index turned out to be 2.14.

Turning to APWNYHYHCPGSKDHQVPYGHDYP, the protein stability index was determined as 1.84.

As for APWNYHYHCPGSPDHQVPYMHDYP, the protein stability index turned out to be 1.93.

APWNYHYHCPGSPDHQVPYPHDYP: the protein stability index is 2.26.

Take APWNYHYHCPGSPDHQVPYEHDYP: the protein stability index was found to be 2.48.

In the case of APWNYHYHCPGSPDHQVPYVHDYP, the protein stability index is 2.13.

For the variant APWNYHYHCPGSPDHQVPYIHDYP, the protein stability index stood at 2.74.

As to APWNYHYHCPGSPDHQVPYYHDYP, the protein stability index was determined as 2.15.
